Article PMC6888457, “PpAKR1A, a Novel Aldo-Keto Reductase from Physcomitrella Patens, Plays a Positive Role in Salt Stress” (International Journal of Molecular Sciences, 2019)

T1: PpAKR1A (Physcomitrium patens, UniProt A9RMV1)
T1 construct: gene LOC112295666; full coding region (from ATGGCGTTCGAAGTGCCT), expressed in E. coli BL21 from pMAL-c1 (BamHI/SalI); purified on Ni-NTA as 'His-fusion' (tag description inconsistent: MBP vector vs His)
T1 sequence (A9RMV1 1-354): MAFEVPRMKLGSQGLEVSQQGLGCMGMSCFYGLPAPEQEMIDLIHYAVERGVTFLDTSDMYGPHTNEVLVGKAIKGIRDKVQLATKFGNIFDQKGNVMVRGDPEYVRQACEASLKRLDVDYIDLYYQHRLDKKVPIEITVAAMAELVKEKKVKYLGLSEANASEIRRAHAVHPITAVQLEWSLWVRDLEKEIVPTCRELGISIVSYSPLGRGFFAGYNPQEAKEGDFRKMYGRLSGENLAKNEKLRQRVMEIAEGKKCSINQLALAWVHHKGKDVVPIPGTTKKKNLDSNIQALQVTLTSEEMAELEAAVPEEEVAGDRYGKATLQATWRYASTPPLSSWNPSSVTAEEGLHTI

B1: PpAKR1A (Physcomitrium patens) (protein)
chain: T1 sequence (A9RMV1 1-354)
notes: full coding region (from …), expressed in E. coli BL21 from pMAL-c1 (BamHI/SalI); purified on Ni-NTA as 'His-fusion' (tag description inconsistent: MBP vector vs His)

Legend:
[1] = target: T1, PpAKR1A; assay: spectrophotometric NADPH oxidation at […] nm, Michaelis-Menten non-linear fit; type: biochemical; details: 150 µM NADPH, 50 mM Tris-HCl pH 7.0, 25 °C; apparent constant
[2] = substrate: O=CC=O; assay: purified protein; type: biochemical, Physcomitrium patens; details: 150 µM NADPH, 50 mM Tris-HCl pH 7.0, 25 °C, apparent constant
[3] = substrate: CC(=O)C=O; assay: purified protein; type: biochemical, Physcomitrium patens; details: 150 µM NADPH, 50 mM Tris-HCl pH 7.0, 25 °C, apparent constant

Molecule	Km [1] [mM]	Km [2] [mM]	kcat [2] [s⁻¹]	kcat/Km [2] [M⁻¹ s⁻¹]	Km [3] [mM]	kcat [3] [s⁻¹]	kcat/Km [3] [M⁻¹ s⁻¹]
C=CC=O [Acrolein]	6.2 ± 1.11						
B1		1.526 ± 0.237	0.063 ± 0.041	63	0.2262 ± 0.063	0.86 ± 0.055	3810
